Measurements taken from US20130177579A1 (BIOALLIANCE C V, published 2013).

Key:
[1] = molecular target: human transferrin receptor expressed by nonhematopoietic cancer cells (human) (UniProt P02786); test: FACS, NCI-N87 cells, 1/5X
[2] = molecular target: human transferrin receptor expressed by nonhematopoietic cancer cells (human) (UniProt P02786); test: FACS, NCI-N87 cells, 1X
[3] = molecular target: human transferrin receptor expressed by nonhematopoietic cancer cells (human) (UniProt P02786); test: FACS, DLD-1 cells, 1X
[4] = molecular target: human transferrin receptor expressed by nonhematopoietic cancer cells (human) (UniProt P02786); test: FACS, Panc02.03B cells, 1X
[5] = molecular target: human transferrin receptor expressed by nonhematopoietic cancer cells (human) (UniProt P02786); test: FACS, COLO205 cells, 1/5X
[6] = molecular target: human transferrin receptor expressed by nonhematopoietic cancer cells (human) (UniProt P02786); test: FACS, KLE cells, 1X
[7] = molecular target: human transferrin receptor expressed by nonhematopoietic cancer cells (human) (UniProt P02786); test: FACS, SNU-16 cells, 1/5X
[8] = molecular target: human transferrin receptor expressed by nonhematopoietic cancer cells (human) (UniProt P02786); test: FACS, SNU-16 cells, 1X
[9] = molecular target: human transferrin receptor expressed by nonhematopoietic cancer cells (human) (UniProt P02786); test: FACS, WiDr cells, 1/5X
[10] = molecular target: human transferrin receptor expressed by nonhematopoietic cancer cells (human) (UniProt P02786); test: FACS, WiDr cells, 1X
[11] = molecular target: human transferrin receptor expressed by nonhematopoietic cancer cells (human) (UniProt P02786); test: FACS, COLO205 cells, 1X
[12] = molecular target: human transferrin receptor expressed by nonhematopoietic cancer cells (human) (UniProt P02786); test: FACS, SK-OV-3 cells, 1X
[13] = molecular target: human transferrin receptor expressed by nonhematopoietic cancer cells (human) (UniProt P02786); test: FACS, Panc-1 cells, 1X
[14] = molecular target: human transferrin receptor expressed by nonhematopoietic cancer cells (human) (UniProt P02786); test: FACS, A549 cells, 1/5X
[15] = molecular target: human transferrin receptor expressed by nonhematopoietic cancer cells (human) (UniProt P02786); test: FACS, Panc-1 cells, 1/5X
[16] = molecular target: human transferrin receptor expressed by nonhematopoietic cancer cells (human) (UniProt P02786); test: FACS, DU145 cells, 1X
[17] = molecular target: human transferrin receptor expressed by nonhematopoietic cancer cells (human) (UniProt P02786); test: FACS, A549 cells, 1X
[18] = molecular target: human transferrin receptor expressed by nonhematopoietic cancer cells (human) (UniProt P02786); test: FACS, DU145 cells, 1/5X
[19] = molecular target: human transferrin receptor expressed by nonhematopoietic cancer cells (human) (UniProt P02786); test: FACS, SK-OV-3 cells, 1/5X
[20] = molecular target: human transferrin receptor expressed by nonhematopoietic cancer cells (human) (UniProt P02786); test: FACS, DU145 cells, 1x
[21] = molecular target: human transferrin receptor expressed by nonhematopoietic cancer cells (human) (UniProt P02786); test: FACS, H727 cells, 1x
[22] = molecular target: human transferrin receptor expressed by nonhematopoietic cancer cells (human) (UniProt P02786); test: FACS, SNU-16 cells, 1x
[23] = molecular target: human transferrin receptor expressed by nonhematopoietic cancer cells (human) (UniProt P02786); test: FACS, WiDr cells, 1x
[24] = molecular target: human transferrin receptor expressed by nonhematopoietic cancer cells (human) (UniProt P02786); test: FACS, HEC-1-A cells, 1x
[25] = molecular target: human transferrin receptor expressed by nonhematopoietic cancer cells (human) (UniProt P02786); test: FACS, Panc02.03B cells, 1x
[26] = molecular target: human transferrin receptor expressed by nonhematopoietic cancer cells (human) (UniProt P02786); test: FACS, SU.86.86 cells, 1x
[27] = molecular target: human transferrin receptor expressed by nonhematopoietic cancer cells (human) (UniProt P02786); test: FACS, Kato III cells, 1x
[28] = molecular target: human transferrin receptor expressed by nonhematopoietic cancer cells (human) (UniProt P02786); test: FACS, SK-OV-3 cells, 1x
[29] = molecular target: human transferrin receptor expressed by nonhematopoietic cancer cells (human) (UniProt P02786); test: FACS, COLO205 cells, 1x
[30] = molecular target: human transferrin receptor expressed by nonhematopoietic cancer cells (human) (UniProt P02786); test: FACS, MDA-MB-453 cells, 1x
[31] = molecular target: human transferrin receptor expressed by nonhematopoietic cancer cells (human) (UniProt P02786); test: FACS, NCI-N87 cells, 1x
[32] = molecular target: human transferrin receptor expressed by nonhematopoietic cancer cells (human) (UniProt P02786); test: FACS, H727 cells, 1/5X
[33] = molecular target: human transferrin receptor expressed by nonhematopoietic cancer cells (human) (UniProt P02786); test: FACS, DLD-1 cells, 1x
[34] = molecular target: human transferrin receptor expressed by nonhematopoietic cancer cells (human) (UniProt P02786); test: FACS, OMC-3 cells, 1x

Chain of human transferrin receptor expressed by nonhematopoietic cancer cells (human) (P02786 whole entry G142S): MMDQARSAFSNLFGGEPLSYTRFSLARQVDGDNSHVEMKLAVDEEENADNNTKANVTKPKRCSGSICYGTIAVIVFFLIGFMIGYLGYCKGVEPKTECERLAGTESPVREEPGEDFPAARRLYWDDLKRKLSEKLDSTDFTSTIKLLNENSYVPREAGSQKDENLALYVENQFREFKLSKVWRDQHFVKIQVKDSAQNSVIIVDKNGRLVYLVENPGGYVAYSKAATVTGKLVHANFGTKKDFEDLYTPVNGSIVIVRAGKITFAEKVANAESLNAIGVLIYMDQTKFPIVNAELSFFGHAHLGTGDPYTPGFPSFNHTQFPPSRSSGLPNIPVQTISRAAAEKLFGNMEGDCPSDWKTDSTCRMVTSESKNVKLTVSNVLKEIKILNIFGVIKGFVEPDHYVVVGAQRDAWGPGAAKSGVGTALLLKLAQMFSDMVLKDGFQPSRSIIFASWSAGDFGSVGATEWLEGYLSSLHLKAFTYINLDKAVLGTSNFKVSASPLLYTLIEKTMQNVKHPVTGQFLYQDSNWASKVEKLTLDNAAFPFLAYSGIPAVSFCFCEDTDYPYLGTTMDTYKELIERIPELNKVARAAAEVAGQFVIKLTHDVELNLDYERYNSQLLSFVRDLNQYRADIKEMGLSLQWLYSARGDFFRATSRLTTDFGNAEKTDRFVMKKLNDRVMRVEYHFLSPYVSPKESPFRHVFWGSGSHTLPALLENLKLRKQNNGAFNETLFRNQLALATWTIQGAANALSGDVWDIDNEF

B1: antibody 6-90 (antibody, mouse IgM, V domains shown)
VH: EVELQQFGIEMVKPGASVKISCKASGYIFTDYHMDWVRQSHGKSLEWIGDIDPKYDRVTYNQKFKGKASLTADKSSSTAYMELRSLTSEDTAVYYCAKTGAYGDYLAYWGQGTLVTVSA
VL: DLVMTQTPLSLPVSLGDQASISCRSSQSLVHSDGNTYFYWYLQKPGQSPKLLIYKVSNRFSGVPDRFSAGGSGTYFTLKISRVEAEDLGVYFCSQTTHFPPTFGGGTKLEIKR
notes: Mouse IgM, kappa from a hybridoma; tested as hybridoma culture supernatant
MFI [1]: 5100 MFI
MFI [2]: 5810 MFI
MFI [3]: 3760 MFI
MFI [4]: 5910 MFI
MFI [5]: 6160 MFI
MFI [6]: 890 MFI
MFI [7]: 3970 MFI
MFI [8]: 4750 MFI
MFI [9]: 1080 MFI
MFI [10]: 1420 MFI
MFI [11]: 7090 MFI

B2: antibody 55-31 (antibody, mouse IgM, V domains shown)
VH: QVQLQQPGAELVKPGTSVKLSCKASGYNFTSYWINWVKLRPGQGLEWIGDIYPGSGSTNYNEKFKSKATLTVDTSSSTAYMQLSSLASEDSALYYCARSAYRYDWFAYWGQGTLVTVSA
VL: DIQMTQSPASLSVSVGETVTITCRASENIYSNLAWYQQKQGKSPQLLVYAATNLADGVPSRFSGSGSGTQYSLKINSLQSEDFGSYYCQHFWGTPYTFGGGTKLEIKR
notes: as for B1
MFI [12]: 2370 MFI
MFI [3]: 219 MFI
MFI [4]: 574 MFI
MFI [13]: 773 MFI
MFI [6]: 136 MFI
MFI [14]: 711 MFI
MFI [15]: 503 MFI
MFI [16]: 2280 MFI
MFI [17]: 897 MFI
MFI [18]: 2280 MFI
MFI [19]: 1970 MFI

B3: antibody 122-72 (antibody, V domains shown)
VH: EVQLVESGGGLVQPKGSLKLSCAASGFTFNTYAMNWVRQAPGKGLEWVARIRSKSNNYATYYADSVKDRFTISRDDSQSMLYLQMNNLKTEDTAMYYCVAYGSRNYWGQGTTLTVSS
VL: DIVMTQSPSSLTVTAGEKVTMSCKSSQSLLNSGNQKNYLTWYQQKPGQPPKLLIYWASTRESGVPDRFTGSGSGTDFTLTISSVQAEDLAVYYCQNDYSYPYTFGGGTKLEIKR
notes: Mouse IgM, kappa from a hybridoma; tested as hybridoma culture supernatant; Antibody 60-43 is said to have the same CDRs
MFI [20]: 51 MFI
MFI [1]: 4300 MFI
MFI [21]: 623 MFI
MFI [22]: 4150 MFI
MFI [23]: 2480 MFI
MFI [24]: 72 MFI
MFI [25]: 4690 MFI
MFI [26]: 5070 MFI
MFI [27]: 613 MFI
MFI [5]: 6340 MFI
MFI [7]: 5100 MFI
MFI [28]: 467 MFI
MFI [9]: 2460 MFI
MFI [29]: 6660 MFI
MFI [30]: 53 MFI
MFI [18]: 13 MFI
MFI [31]: 3940 MFI
MFI [32]: 319 MFI
MFI [33]: 2500 MFI
MFI [19]: 381 MFI
MFI [34]: 3460 MFI
